Measurements: patent publication US20080050351A1 (Pfizer, published 2008)

Target: T1, lecithin:cholesterol acyltransferase (LCAT), purified from human plasma (human, UniProt P04180 25-440)
T1 sequence (looked up): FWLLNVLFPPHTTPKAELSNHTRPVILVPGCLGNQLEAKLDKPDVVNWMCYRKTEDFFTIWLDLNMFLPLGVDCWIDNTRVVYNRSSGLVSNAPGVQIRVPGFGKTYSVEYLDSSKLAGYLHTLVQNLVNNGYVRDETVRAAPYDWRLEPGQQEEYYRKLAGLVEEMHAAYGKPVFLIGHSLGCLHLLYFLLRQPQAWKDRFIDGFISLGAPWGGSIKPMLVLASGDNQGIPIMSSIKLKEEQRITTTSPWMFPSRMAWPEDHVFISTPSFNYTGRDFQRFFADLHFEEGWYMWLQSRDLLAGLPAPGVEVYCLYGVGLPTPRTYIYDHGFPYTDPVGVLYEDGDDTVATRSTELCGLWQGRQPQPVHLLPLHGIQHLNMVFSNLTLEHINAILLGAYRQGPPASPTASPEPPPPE
Assay: cell-based or functional assay

ACTIVITY (%) LCAT: 12%
B1: peptide 221 (peptide)
peptide: DVLDLFRELLEELKQKLK
